Patent US20190085084A1 (published 2019)

B1: anti-Sortilin antibody S-15-6-12 (antibody, V domains shown)
VH: QVQLVQSGAEVKKPGASVKVSCKASGYTFTSRYMSWVRQAPGQGLEWMGIINPVGGSTSYAQKFQGRVTMTRDTSTSTVYMELSSLRSEDTAVYYCARDPSGIALAGPGSPYYRGMDVWGQGTTVTVSS
VL: EIVMTQSPATLSVSPGERATLSCRASQSVSSNLAWYQQKPGQAPRLLIYGASTRATGIPARFSGSGSGTEFTLTISSLQSEDFAVYYCQQARLGPWTFGGGTKVEIK
B2: anti-Sortilin antibody S-15-10-12 (antibody, V domains shown)
VH: QVQLVQSGAEVKKPGASVKVSCKASGYTFTKYYMSWVRQAPGQGLEWMGIINPIGGSTSYAQKFQGRVTMTRDTSTSTVYMELSSLRSEDTAVYYCARDPSGIAAAFPAGRYYYGMDVWGQGTTVTVSS
VL: EIVMTQSPATLSVSPGERATLSCRASQSVSSNLAWYQQKPGQAPRLLIYGASTRATGIPARFSGSGSGTEFTLTISSLQSEDFAVYYCQQARLGPWTFGGGTKVEIK
B3: recombinant mouse Progranulin (Adipogen) (ligand, UniProt P28798 18-589, looked up)
chain: TQCPDGQFCPVACCLDQGGANYSCCNPLLDTWPRITSHHLDGSCQTHGHCPAGYSCLLTVSGTSSCCPFSKGVSCGDGYHCCPQGFHCSADGKSCFQMSDNPLGAVQCPGSQFECPDSATCCIMVDGSWGCCPMPQASCCEDRVHCCPHGASCDLVHTRCVSPTGTHTLLKKFPAQKTNRAVSLPFSVVCPDAKTQCPDDSTCCELPTGKYGCCPMPNAICCSDHLHCCPQDTVCDLIQSKCLSKNYTTDLLTKLPGYPVKEVKCDMEVSCPEGYTCCRLNTGAWGCCPFAKAVCCEDHIHCCPAGFQCHTEKGTCEMGILQVPWMKKVIAPLRLPDPQILKSDTPCDDFTRCPTNNTCCKLNSGDWGCCPIPEAVCCSDNQHCCPQGFTCLAQGYCQKGDTMVAGLEKIPARQTTPLQIGDIGCDQHTSCPVGQTCCPSLKGSWACCQLPHAVCCEDRQHCCPAGYTCNVKARTCEKDVDFIQPPVLLTLGPKVGNVECGEGHFCHDNQTCCKDSAGVWACCPYLKGVCCRDGRHCCPGGFHCSARGTKCLRKKIPRWDMFLRDPVPRPLL
notes: Used biotinylated; also called mPGRN; mouse PGRN
B4: recombinant human Progranulin (Adipogen) (ligand, UniProt P28799 18-593, looked up)
chain: TRCPDGQFCPVACCLDPGGASYSCCRPLLDKWPTTLSRHLGGPCQVDAHCSAGHSCIFTVSGTSSCCPFPEAVACGDGHHCCPRGFHCSADGRSCFQRSGNNSVGAIQCPDSQFECPDFSTCCVMVDGSWGCCPMPQASCCEDRVHCCPHGAFCDLVHTRCITPTGTHPLAKKLPAQRTNRAVALSSSVMCPDARSRCPDGSTCCELPSGKYGCCPMPNATCCSDHLHCCPQDTVCDLIQSKCLSKENATTDLLTKLPAHTVGDVKCDMEVSCPDGYTCCRLQSGAWGCCPFTQAVCCEDHIHCCPAGFTCDTQKGTCEQGPHQVPWMEKAPAHLSLPDPQALKRDVPCDNVSSCPSSDTCCQLTSGEWGCCPIPEAVCCSDHQHCCPQGYTCVAEGQCQRGSEIVAGLEKMPARRASLSHPRDIGCDQHTSCPVGQTCCPSLGGSWACCQLPHAVCCEDRQHCCPAGYTCNVKARSCEKEVVSAQPATFLARSPHVGVKDVECGEGHFCHDNQTCCRDNRQGWACCPYRQGVCCADRRHCCPAGFRCAARGTKCLRREAPRWDAPLRDPALRQLL
notes: Used unlabelled, biotinylated (NHS-PEG4 or Sulfo-NHS) or labelled with DyLight 650, as the assay says; also called PGRN; hPGRN
B5: anti-Sortilin antibody S-22-7 (antibody, V domains shown)
VH: QVQLVQSGAEVKKPGSSVKVSCKASGGTFSSYAISWVRQAPGQGLEWMGGIIPGFGRANYAQKFQGRVTITADESTSTAYMELSSLRSEDTAVYYCARQGRKTGYYYYYGMDVWGQGTTVTVSS
VL: DIQMTQSPSTLSASVGDRVTITCRASQSISSWLAWYQQKPGKAPKLLIYKASSLESGVPSRFSGSGSGTEFTLTISSLQPDDFATYYCQQADGHITFGGGTKVEIK

Legend:
[1] = biological target: T1, human Sortilin expressed on HEK293T cells (human, UniProt Q99523 78-830); experiment: flow cytometry titration on HEK293T cells expressing human Sortilin, 4 C, apparent KD
T1 construct: also called hSort; HEK293T+ hSort

[2] = biological target: T2, mouse Sortilin expressed on HEK293T cells (mouse, UniProt Q6PHU5 74-825); experiment: flow cytometry titration on HEK293T cells expressing mouse Sortilin, 4 C, apparent KD
T2 construct: also called msSort; mSort

[3] = biological target: T3, mouse Sortilin (R&D Systems), recombinant (mouse, UniProt Q6PHU5 74-754, limits assumed); experiment: ELISA, biotinylated Progranulin on plate-immobilized Sortilin
T3 construct: Bought protein; also called mouse SORT1
Procedure: (§1) Briefly, human or mouse Sortilin (R&D Systems) was immobilized overnight on an ELISA plate (2 μg/ml in PBS). The plates were washed in wash buffer (PBS+0.05% TWEEN20) and blocked for one hour at 37° C. with binding buffer (PBS+1% BSA). […] Plates were washed thrice in wash buffer and incubated with Streptavidin-HRP (1:200 in binding buffer, R&D Systems) for 20 min. Plates were washed thrice again and incubated with TMB substrate solution until color developed. The reaction was stopped by adding 50 ul of 2N sulfuric acid and color was quantified using a Biotek Synergy H1 plate reader. Data was analyzed and fitted in Prism.

[4] = biological target: T4, Human His-tagged Sortilin (R&D Systems) (human, UniProt Q99523 78-755); experiment: Biacore SPR, Sortilin captured by anti-His antibody on CM5 chip, Progranulin flowed over
T4 construct: Bought protein; also called His-captured Sortilin (SORT1); Histidine-tagged human Sortilin
Source text: Briefly, Sortilin was captured on a CM5 sensor chip that was immobilized with an anti-His antibody (kit from GE). Progranulin was flowed over in HBS binding buffer at various concentrations. Fitting of sensorgrams for affinity estimations was done using BIAevaluation version 3.1.

[5] = biological target: T4, Human His-tagged Sortilin (R&D Systems); experiment: ELISA, biotinylated Progranulin on plate-immobilized Sortilin
Procedure: as §1

Row | Binder | Kd [1] [nM] | Kd [2] [nM] | also measured
1 | B1 | 3.84 | 6.62 | –
2 | B2 | 4.3 | 8.89 | –
3 | B3 | – | – | Kd [3]: 40 nM
4 | B4 | – | – | Kd [4]: 14.3 nM; Kd [5]: 14 nM
5 | B5 | 2.05 | – | –
